We go through 2 molecules from PMC5672800.

Assay [1] addresses mouse melanocortin-3 receptor (mouse) (UniProt P33033). Nature of the assay: radioligand binding.
The target of assay [2] is mouse melanocortin-4 receptor (mouse) (UniProt P56450). Nature of the assay: radioligand binding.
In assay [3] the target is mouse melanocortin-3 receptor (mouse) (UniProt P33033).
Assay [4] addresses mouse melanocortin-1 receptor (mouse) (UniProt Q01727).
The target in assay [5] is mouse melanocortin-5 receptor (mouse) (UniProt P41149).
Chain of mouse melanocortin-5 receptor (mouse) (P41149 whole entry): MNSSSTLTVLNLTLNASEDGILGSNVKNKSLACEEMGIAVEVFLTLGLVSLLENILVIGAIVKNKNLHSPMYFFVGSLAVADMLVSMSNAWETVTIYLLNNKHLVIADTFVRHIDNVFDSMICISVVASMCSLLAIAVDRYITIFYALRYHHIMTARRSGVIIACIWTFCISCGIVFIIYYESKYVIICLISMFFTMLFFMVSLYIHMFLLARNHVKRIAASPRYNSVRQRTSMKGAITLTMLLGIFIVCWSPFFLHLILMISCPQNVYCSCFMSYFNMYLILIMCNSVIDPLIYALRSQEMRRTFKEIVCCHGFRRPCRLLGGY

Chain of mouse melanocortin-3 receptor (mouse) (P33033 whole entry): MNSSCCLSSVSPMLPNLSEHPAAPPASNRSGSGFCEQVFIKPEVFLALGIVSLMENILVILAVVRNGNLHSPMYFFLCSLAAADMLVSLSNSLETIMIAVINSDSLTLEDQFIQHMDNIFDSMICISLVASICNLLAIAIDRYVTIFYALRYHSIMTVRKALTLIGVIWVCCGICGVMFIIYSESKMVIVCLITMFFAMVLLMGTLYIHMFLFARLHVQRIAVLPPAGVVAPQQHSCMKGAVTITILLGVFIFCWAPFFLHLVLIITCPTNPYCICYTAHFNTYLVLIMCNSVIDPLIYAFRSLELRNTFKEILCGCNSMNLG
Chain of mouse melanocortin-4 receptor (mouse) (P56450 whole entry): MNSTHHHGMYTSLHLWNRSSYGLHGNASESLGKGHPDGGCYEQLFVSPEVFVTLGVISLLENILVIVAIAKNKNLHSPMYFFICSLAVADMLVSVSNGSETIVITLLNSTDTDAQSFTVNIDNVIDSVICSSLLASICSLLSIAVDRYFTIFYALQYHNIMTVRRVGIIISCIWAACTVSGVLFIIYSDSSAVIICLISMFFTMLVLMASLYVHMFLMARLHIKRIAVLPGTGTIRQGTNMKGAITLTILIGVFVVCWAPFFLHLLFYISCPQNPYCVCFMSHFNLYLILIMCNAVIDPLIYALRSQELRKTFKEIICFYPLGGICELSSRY
Chain of mouse melanocortin-1 receptor (mouse) (Q01727 whole entry): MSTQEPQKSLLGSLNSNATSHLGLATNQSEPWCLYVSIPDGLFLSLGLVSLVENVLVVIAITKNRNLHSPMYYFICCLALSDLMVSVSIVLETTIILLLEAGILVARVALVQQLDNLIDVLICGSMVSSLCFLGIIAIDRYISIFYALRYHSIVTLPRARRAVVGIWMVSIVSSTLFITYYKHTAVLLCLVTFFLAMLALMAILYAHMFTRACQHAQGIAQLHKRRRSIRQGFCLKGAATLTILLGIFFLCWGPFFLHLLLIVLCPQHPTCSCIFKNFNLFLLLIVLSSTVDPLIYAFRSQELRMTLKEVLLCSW

B1: compound 25 (peptide)
peptide: RRFF
HELM: PEPTIDE1{[ac].R.R.[O=C([C@@H](Cc1ccc(I)cc1)N[*:1])[*:2]].F.[am]}$$$$V2.0
SMILES: CC(=O)N[C@@H](CCCNC(=N)N)C(=O)N[C@@H](CCCNC(=N)N)C(=O)N[C@H](Cc1ccc(I)cc1)C(=O)N[C@@H](Cc1ccccc1)C(N)=O
One may read the IC50 as the concentration at which inhibition is half-maximal. The low end stands for greater potency in that assay, the high end for weaker potency in that assay. For the molecule B1, the concentration for half-maximal inhibition (IC50) in assay [1] amounted to 6.5 µM; in assay [2], 0.455 µM. This molecule also registered a cAMP AlphaScreen, HEK293 cells stably expressing the receptor: agonist EC50 in assay [3] of 0.54 µM.

B2: compound 26 (peptide)
peptide: HRFF
HELM: PEPTIDE1{[ac].H.R.[O=C([C@@H](Cc1ccc(I)cc1)N[*:1])[*:2]].F.[am]}$$$$V2.0
SMILES: CC(=O)N[C@@H](Cc1c[nH]cn1)C(=O)N[C@@H](CCCNC(=N)N)C(=O)N[C@H](Cc1ccc(I)cc1)C(=O)N[C@@H](Cc1ccccc1)C(N)=O
With B2, the cAMP AlphaScreen, HEK293 cells stably expressing the receptor: agonist EC50 in assay [4] was 0.092 µM; in assay [5], 0.68 µM; in assay [3], 1.1 µM.
